Patent US8008547B2, “Glyphosate-N-acetyltransferase (GAT) genes” (E.I. duPont de Nemours, priority 2000, dated 2011)

Tests used:
[1] = test system: Nicotiana tabacum L. Xanthi leaf explants; experiment: Tobacco shoot regeneration with glyphosate selection; type: cell-based; conditions: explants lacking a GAT gene
Description: Agrobacterium-mediated transformation of plant cells occurs at low efficiencies. To allow propagation of transformed cells while inhibiting proliferation of non-transformed cells, a selectable marker is needed. Antibiotic markers for kanamycin and hygromycin and the herbicide modifying gene bar, which detoxifies the herbicidal compound phosphinothricin, are examples of selectable markers used in plants (Methods in Molecular Biology, 1995, 49:9-18). […] An evolved GAT gene (0—5B8), SEQ ID NO: 190, was cloned between a plant promoter (enhanced strawberry vein banded virus) and a […] terminator and introduced into the T-DNA region of the binary vector pMAXY3793 suitable for transformation of plant cells via Agrobacterium tumefaciens EHA105 as shown in FIG. 12. A screenable GUS marker was present in the T-DNA to allow confirmation of transformation. Transgenic tobacco shoots were generated using glyphosate as the only selecting agent.
Axillary buds of Nicotiana tabacum L. Xanthi were subcultured on half-strength MS medium with sucrose (1.5%) and Gelrite (0.3%) under 16-h light (35-42 μEinsteins m^−2 s^−1, cool white fluorescent lamps) at 24° C. every 2-3 weeks. Young leaves were excised from plants after 2-3 weeks subculture and were cut into 3×3 mm segments. A. tumefaciens EHA105 was inoculated into LB medium and grown overnight to a density of A600=1.0. […]

[2] = test system: tobacco plants; experiment: Herbicide spray tests of GAT expressing tobacco plants; type: in vivo, Nicotiana tabacum
Protocol: Tobacco shoots generated as described in EXAMPLE 9 were excised from the explants and transferred to basal root induction (BRI) medium composed of half-strength Murashige and Skoog (MS) medium, pH 5.7, with 1.5% sucrose, 0.3% Gelrite, 0-200 uM glyphosate and 400 ug/ml Timentin. Rooted plants and axillary shoots were clonally propagated by cutting the stem and transferring it to fresh BRI medium until the desired number of clones was obtained. Rooted plants were carefully removed from the solid medium. Prior to placing the plants into small pots of soil, the roots were washed to remove any remaining Gelrite. A protective plastic cover was kept over the plants for at least one week until the plants were well established.
To determine if GAT expressing tobacco plants could tolerate simulated field rate sprays of glyphosate, clonal lines of several events per GAT variant were tested. A typical test was set up as follows: One clone from each event was sprayed with 1 ml of solution containing the isopropylamine salt of glyphosate (Sigma P5671) and 0.125% Triton X-100, pH 6.8 such that the amount of active ingredient sprayed was equivalent to that present in commercial glyphosate products. For example, to achieve 32 oz/acre (1×) of herbicide containing 40% active ingredient (“ai”), 2.4 ul of 40% ai formulation was diluted into 1 ml water and sprayed on a plant in a 4-inch square pot (16 in^2). A mock application (0×) with surfactant only was also included. In some cases a second spray was applied 1-4 weeks later. Plants were kept in controlled growth rooms at 25° C. and 70% humidity with 16 hr light.
Seed-grown wild type plants were also sprayed. […] All 0× plants were healthy, including the non-GAT control plants. Three weeks later all of the surviving plants were sprayed with an 8× dose.

[3] = GAT activity (acetylation of glyphosate), general statements; type: biochemical; conditions: native YitI of Bacillus subtilis
Description: As used herein, the term “glyphosate-N-acetyltransferase activity” or “GAT activity” refers to the ability to catalyze the acetylation of the secondary amine group of glyphosate, as illustrated, for example, in FIG. 1. A “glyphosate-N-acetyltransferase” or “GAT” is an enzyme that catalyzes the acetylation of the amine group of glyphosate, a glyphosate analog, and/or a glyphosate primary metabolite (i.e., AMPA or sarcosine). In some preferred embodiments of the invention, a GAT is able to transfer the acetyl group from Acetyl CoA to the secondary amine of glyphosate and the primary amine of AMPA. […] The exemplary GATs described herein are active from pH 5-9, with optimal activity in the range of pH 6.5-8.0. Activity can be quantified using various kinetic parameters which are well known in the art, e.g., kcat, KM, and kcat/KM. These kinetic parameters can be determined as described below in Example 7.

[4] = test system: yeast strain YPH499; experiment: Glyphosate selection of transformed yeast cells; type: cell-based, Saccharomyces cerevisiae; conditions: CSM-YNB-glucose medium lacking aromatic amino acids with added glyphosate
Description: Selection markers for yeast transformation are usually auxotrophic genes that allow growth of transformed cells on a medium lacking the specific amino acid or nucleotide. Because Saccharomyces cerevisiae is sensitive to glyphosate, GAT can also be used as a selectable marker. […] This plasmid contains an E. coli origin of replication and a gene conferring carbenicillin resistance as well as a TRP1, tryptophan auxotroph selectable marker for yeast transformation.
The GAT containing construct is transformed into E. coli XL1 Blue (Statagene) and plated on LB carbenicillin (50 ug/ml) agar medium. Plasmid DNA is prepared and used to transform yeast strain YPH499 (Stratagene) using a transformation kit (Bio 101). Equal amounts of transformed cells are plated on CSM-YNB-glucose medium (Bio 101) lacking all aromatic amino acids (tryptophan, tyrosine, and phenylalanine) with added glyphosate. For comparison, p424TEF lacking the GAT gene is also introduced into YPH499 and plated as described. […] The presence of the GAT containing vector in glyphosate selected colonies can be confirmed by re-isolation of the plasmid and restriction digest analysis.

[5] = test system: maize plants; experiment: Effect of temperature variation on glyphosate tolerance of T1 maize expressing GAT transgenes; type: in vivo; conditions: cool/cold, warm and hot conditions; 0×, 4×, 6×, 8× at V2; scored at 5 and 14 days
Protocol: Maize plants expressing GAT variant transgenes 10—4F2 (SEQ ID NO:202), 17-15H3 (SEQ ID NO:549), and 18-28D9b (SEQ ID NO:814) were produced using the methods described in Example 13. The effect of temperature on glyphosate tolerance was evaluated in T1 plants. The T1 plants were grown in cool/cold (day 14° C., night 8° C.), warm (day 28° C., night 20° C.), and hot (day 37° C., night 20° C.) conditions. T1 plants were sprayed at V2 with four different glyphosate spray treatments (0×, 4×, 6×, and 8×). Plants were scored at 5 and 14 days after treatment for leaf discoloration and plant height comparisons as described in Example 13.

[6] = test system: maize plants; experiment: T1 field glyphosate spray of maize expressing GAT transgenes; type: in vivo; conditions: 0×, 4×, 8×, and 4×+4× sprays at V3 and V8; scored 10 days after treatment
Protocol: Maize plants expressing GAT variant transgenes 18-28D9b (SEQ ID NO:814) and 17-15H3 (SEQ ID NO:549) were produced using the methods described in Example 13. T1 plants were used for the generation of glyphosate field-tolerance data. The T1 plants were treated in the field with four different glyphosate spray treatments (0×, 4×, 8×, and 4×+4×) for each event. The plants were sprayed at V3 and V8. Plants were scored 10 days after treatment for leaf discoloration and plant height comparisons as described in Example 13. […] T2 seeds were collected for further studies.

## O=C(O)CNCP(=O)(O)O [glyphosate, N-phosphonomethylglycine]
[1]
  glyphosate concentration that completely inhibited any shoot formation: greater than 20 uM
[2]; 0.5, 2 or 4× glyphosate, vector only and seed grown wild type tobacco
  plant response two weeks after glyphosate spray: stopped growing, wilted, and turned brown
[2]; 8× glyphosate, non-GAT 0× control tobacco plants
  plant response after 8× dose: died within two weeks

B1: YitI: most closely related sequence available in Genbank, yitI from Bacillus subtilis (protein, UniProt O06744 1-149, looked up)
Uncharacterized …: MLEVKTISVEDTYEIRHRILRPHQSIEQCKYKEDHAEGSFHLGVFYDGTLISIASFSPQSQPLLTEASAYRLRGMATLEGYRDQKAGSTLIKHAEHKLAESGVQAVWCNARHHVKGYYAKLGWKELGEPFDIPGIGNHIVMYKTLRTSR
[3]
  GAT activity: detectable GAT activity

B2: SEQ ID NO: 196: evolved GAT gene (nucleic acid)
DNA: ATGCTAGAGGTGAAACCGATTAACGCAGAGGATACCTATGAACTAAGGCATAAAATACTCAGACCAAACCAGCCGTTAGAAGTGTGTATGTATGAAACCGATTTACTTCGTGGTGCATTTCACTTAGGCGGCTTTTACAGGGGCAAACTGATTTCCATAGCTTCATTCCACCAGGCCGAGCACTCAGACCTCCAAGGCCAGAAACAGTACCAGCTCCGAGGTATGGCTACCTTGGAAGGTTATCGTGATCAGAAAGCGGGATCGAGTCTAATTAGACACGCTGAACAAATTCTTCGTAAGAGGGGGGCGGACATGCTTTGGTGCAATGCGCGGACATCCGCCTCAGGCTACTACAAAAAGTTAGGCTTCAGCGAGCAGGGAGAGGTATTTGAAACGCCGCCAGTAGGACCTCACATCCTGATGTATAAAAGGCTCACA
modifications: Synthetic DNA Sequence; 0_6D10
notes: evolved GAT gene
[4]
  function as selectable marker in yeast: efficient selectable marker
[2]; 0.5, 2 or 4× glyphosate (1× = 32 oz/acre of 40% ai), transgenic GAT tobacco
  plant response two weeks after glyphosate spray: survived the spraying procedure without signs of glyphosate damage
[2]; 8× glyphosate dose three weeks later, transgenic GAT tobacco
  survival after second spray: all GAT plants survived

B3: SEQ ID NO:814: GAT variant transgene (nucleic acid)
DNA: ATGATAGAGGTGAAACCGATTAACGCAGAGGATACCTATGAACTAAGGCATAGAATACTCAGACCAAACCAGCCGATAGAAGCGTGTATGTTTGAAAGCGATTTACTTCGTGGTGCATTTCACTTAGGCGGCTTTTACAGGGGCAAACTGATTTCCATAGCTTCATTCCACCAGGCCGAGCACTCGGAACTCCAAGGCCAGAAACAGTACCAGCTCCGAGGTATGGCTACCTTGGAAGGTTATCGTGAGCAGAAAGCGGGATCAACTCTAGTTAAACACGCTGAAGAAATCCTTCGTAAGAGGGGGGCGGACATGCTTTGGTGTAATGCGCGGACATCCGCCTCAGGCTACTACAAAAAGTTAGGCTTCAGCGAGCAGGGAGAGATATTTGACACGCCGCCAGTAGGACCTCACATCCTGATGTATAAAAGGATCACATAA
modifications: Synthetic DNA Sequence; CDS (1)...(441); 18-28D9b
notes: GAT variant transgene
[5]
  effect of temperature on glyphosate tolerance: glyphosate tolerance is not adversely effected by the range of temperatures tested
[6]
  T1 field glyphosate tolerance: correlated well with the results previously obtained in the greenhouse

B4: SEQ ID NO:549: GAT variant transgene (nucleic acid)
DNA: ATGATAGAGGTGAAACCGATTAACGCAGAGGATACCTATGAACTAAGGCATAGAATACTCAGACCAAACCAGCCGATAGAAGCGTGTATGTTTGAAAGCGATTTACTTCGTGGTGCATTTCACTTAGGCGGCTATTACGGGGGCAAACTGATTTCCATAGCTTCATTCCACCAGGCCGAGCACTCAGAACTCCAAGGCCAGAAACAGTACCAGCTCCGAGGTATGGCTACCTTGGAAGGTTATCGTGAGCAGAAGGCGGGATCGAGTCTAATTAAACACGCTGAAGAAATTCTTCGTAAGAGGGGGGCGGACTTGCTTTGGTGTAATGCGCGGACATCCGCCTCAGGCTACTACAAAAAGTTAGGCTTCAGCGAGCAGGGAGAGGTATTCGACACGCCGCCAGTAGGACCTCACATCCTGATGTATAAAAGGATCACATAA
modifications: Synthetic DNA Sequence; D_S00260796_17-15H3
notes: GAT variant transgene
[5]
  effect of temperature on glyphosate tolerance: glyphosate tolerance is not adversely effected by the range of temperatures tested
[6]
  T1 field glyphosate tolerance: correlated well with the results previously obtained in the greenhouse
